US20210395323A1 (UNIVERSIT T STUTTGART, published 2021)

Legend:
[1] = biological target: T1, TNFR2 on human cells (Kym-1 cells; human CD3+ T cells) (human, UniProt P20333 23-461); assay: cell-based or functional assay
T1 sequence (looked up): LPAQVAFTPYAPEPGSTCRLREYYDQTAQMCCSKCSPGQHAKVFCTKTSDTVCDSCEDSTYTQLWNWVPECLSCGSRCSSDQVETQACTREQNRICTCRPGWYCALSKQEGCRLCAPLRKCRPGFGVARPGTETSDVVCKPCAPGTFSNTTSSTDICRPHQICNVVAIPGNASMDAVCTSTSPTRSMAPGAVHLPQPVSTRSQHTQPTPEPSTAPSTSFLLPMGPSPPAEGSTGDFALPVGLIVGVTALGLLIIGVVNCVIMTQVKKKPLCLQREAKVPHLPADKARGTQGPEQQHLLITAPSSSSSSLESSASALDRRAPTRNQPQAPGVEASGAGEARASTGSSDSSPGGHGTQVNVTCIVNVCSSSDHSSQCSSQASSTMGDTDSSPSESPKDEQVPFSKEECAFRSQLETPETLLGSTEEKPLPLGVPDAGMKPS

[2] = biological target: T1, TNFR2 on human cells (Kym-1 cells; …); assay: cell-based or functional assay; remark: listed apart in the source
[3] = biological target: T2, human TNFR2-Fc fusion protein (human, UniProt P20333 23-257); assay: ELISA, huTNFR2-Fc coated at 1 µg/ml, bound protein detected with anti-TNF F6C5
T2 construct: also called huTNFR2-Fc; huTNFR2
T2 sequence (looked up): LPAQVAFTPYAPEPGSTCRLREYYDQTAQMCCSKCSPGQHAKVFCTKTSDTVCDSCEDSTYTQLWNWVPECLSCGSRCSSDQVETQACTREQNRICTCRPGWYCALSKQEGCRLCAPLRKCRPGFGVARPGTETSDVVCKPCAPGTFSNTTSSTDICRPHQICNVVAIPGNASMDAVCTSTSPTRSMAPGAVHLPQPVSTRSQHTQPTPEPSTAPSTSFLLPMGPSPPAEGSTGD
Description: ELISA plates (Greiner, Frickenhausen, Germany) were coated with huTNFR1-Fc, mTNFR1-Fc, huTNFR2-Fc or mTNFR2-Fc fusion proteins at 1 μg/ml in PBS and incubated at 4° C. overnight. Residual binding sites were blocked with 2% skim milk powder in PBS at RT for 2 hours. ScTNFR2 and the complexes were diluted in 2% skim milk powder in PBS and added at concentrations in the range of 10⁻³ to 10 nM and incubated for 1 hour at RT. Between each step, non-bound proteins were removed by washing 4 times with 0.005% Tween-20 in PBS.
Bound proteins were detected with mouse monoclonal antibodies to TNF (clone F6C5; 1 μg/ml; incubation for 1 hour at RT) and HRP-conjugated anti-mouse IgG antibodies (diluted 1:10000; incubation for 1 hour at RT), followed by incubation with tetramethylbenzidine (TMB) substrate solution. Reaction was stopped by addition of 1 M H₂SO₄ and the absorbance at 450 nm was determined with a Multiskan FC absorbance reader (Thermo Scientific, Karlsruhe, Germany) and data were analyzed using the software Microsoft Excel and GraphPad Prism 4 (GraphPad, La Jolla, Calif.) (FIG. 5). In Table 3, the calculated EC₅₀ values for the binding of TNF, scTNFR2 and the complexes to immobilized huTNFR2 and mTNFR2 based on the ELISA assay are summarized.

EC50 [3]: 0.508 nM
B1: EHD2-scTNFR2 (human) (ligand)
chain: DFTPPTVKILQSSCDGGGHFPPTIQLLCLVSGYTPGTINITWLEDGQVMDVDLSTASTTQEGELASTQSELTLSQKHWLSDRTYTCQVTYQGHTFEDSTKKCADSNGGGSGGGSGGGSGGGSGGGSGGSEFLASSRTPSDKPVAHVVANPQAEGQLQWLNRRANALLANGVELRDNQLVVPSEGLYLIYSQVLFKGQGCPSTHVLLTHTISRIAVSYQTKVNLLSAIKSPCQRETPEGAEAKPWYEPIYLGGVFQLEKGDRLSAEINRPDYLNFRESGQVYFGIIALGGGGSSSRTPSDKPVAHVVANPQAEGQLQWLNRRANALLANGVELRDNQLVVPSEGLYLIYSQVLFKGQGCPSTHVLLTHTISRIAVSYQTKVNLLSAIKSPCQRETPEGAEAKPWYEPIYLGGVFQLEKGDRLSAEINRPDYLNFRESGQVYFGIIALGGGGSSSRTPSDKPVAHVVANPQAEGQLQWLNRRANALLANGVELRDNQLVVPSEGLYLIYSQVLFKGQGCPSTHVLLTHTISRIAVSYQTKVNLLSAIKSPCQRETPEGAEAKPWYEPIYLGGVFQLEKGDRLSAEINRPDYLNFRESGQVYFGIIAL
notes: Hexavalent dimer of two subunits; also called hexavalent EHD2-scTNFR2
EC50 of Kym-1 cell viability (crystal violet assay after 16 h) [1]: 37000 nM
EC50 values (nM) of cell death induction using Kym-1 cells [2]: 0.0126 nM
